Experimental data: article PMC2174231 (The Journal of Cell Biology, 1999)

B1: Daxx amino acids 625-740 fused to NLS-VP16 (domain or fragment)
chain: SGPPCKKSRKEKKQTGSGPLGNSYVERQRSVHEKNGKKICTLPSPPSPLASLAPVADSSTRVDSPSHGLVTSSLCIPSPARLSQTPHSQPPRPGTCKTSVATQCDPEEIIVLSDSD
B2: Daxx amino acids 433-740 fused to NLS-VP16 (domain or fragment)
chain: AETDDEDDEESDEEEEEEEEEEEEEATDSEEEEDLEQMQEGQEDDEEEDEEEEAAAGKDGDKSPMSSLQISNEKNLEPGKQISRSSGEQQNKGRIVSPSLLSEEPLAPSSIDAESNGEQPEELTLEEESPVSQLFELEIEALPLDTPSSVETDISSSRKQSEEPFTTVLENGAGMVSSTSFNGGVSPHNWGDSGPPCKKSRKEKKQTGSGPLGNSYVERQRSVHEKNGKKICTLPSPPSPLASLAPVADSSTRVDSPSHGLVTSSLCIPSPARLSQTPHSQPPRPGTCKTSVATQCDPEEIIVLSDSD
B3: Daxx amino acids 488-740 fused to NLS-VP16 (domain or fragment)
chain: AGKDGDKSPMSSLQISNEKNLEPGKQISRSSGEQQNKGRIVSPSLLSEEPLAPSSIDAESNGEQPEELTLEEESPVSQLFELEIEALPLDTPSSVETDISSSRKQSEEPFTTVLENGAGMVSSTSFNGGVSPHNWGDSGPPCKKSRKEKKQTGSGPLGNSYVERQRSVHEKNGKKICTLPSPPSPLASLAPVADSSTRVDSPSHGLVTSSLCIPSPARLSQTPHSQPPRPGTCKTSVATQCDPEEIIVLSDSD

Molecular target: T1, PML wild-type fused to GAL4-DBD (UniProt P29590 1-882)
T1 sequence: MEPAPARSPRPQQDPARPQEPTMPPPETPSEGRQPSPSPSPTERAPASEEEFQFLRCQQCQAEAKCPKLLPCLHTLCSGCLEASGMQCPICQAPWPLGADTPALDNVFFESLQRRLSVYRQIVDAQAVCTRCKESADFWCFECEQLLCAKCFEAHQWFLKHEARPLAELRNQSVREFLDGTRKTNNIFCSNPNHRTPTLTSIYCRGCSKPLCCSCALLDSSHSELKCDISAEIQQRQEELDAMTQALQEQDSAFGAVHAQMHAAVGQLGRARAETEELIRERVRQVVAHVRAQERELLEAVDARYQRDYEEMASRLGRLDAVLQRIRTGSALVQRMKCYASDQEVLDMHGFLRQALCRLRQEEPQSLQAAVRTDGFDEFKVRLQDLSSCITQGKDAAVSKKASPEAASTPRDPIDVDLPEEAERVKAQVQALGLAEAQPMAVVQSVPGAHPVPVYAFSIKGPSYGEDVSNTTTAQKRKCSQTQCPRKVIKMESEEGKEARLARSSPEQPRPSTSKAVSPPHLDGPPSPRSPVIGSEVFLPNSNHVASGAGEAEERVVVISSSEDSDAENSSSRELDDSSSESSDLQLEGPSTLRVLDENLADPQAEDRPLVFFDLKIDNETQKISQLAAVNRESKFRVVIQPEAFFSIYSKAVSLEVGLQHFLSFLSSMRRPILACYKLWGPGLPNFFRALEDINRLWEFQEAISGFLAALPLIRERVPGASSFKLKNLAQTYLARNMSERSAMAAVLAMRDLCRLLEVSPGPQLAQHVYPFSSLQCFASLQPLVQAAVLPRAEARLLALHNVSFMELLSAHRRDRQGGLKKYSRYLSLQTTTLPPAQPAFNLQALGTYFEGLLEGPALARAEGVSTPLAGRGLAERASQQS
Assay: two-hybrid

Binder	fold strength of interaction (β-galactosidase) against full-length Daxx	fold weaker interaction (β-galactosidase) against Daxx 488-740
B1	~3 fold	–
B2	–	~20 fold weaker
B3	~3 fold	–
